Results from the supplement of paper PMC10126150.
± gives the standard deviation of the averaged measurements.

System: ATP
Assay: switch fluorescence ratio, 500 uM ATP over buffer (Cy3 cluster intensity, sum of 5 cycles each) (fold (ratio)); higher = stronger signal-on switching upon ATP binding; sequences stand for … in TCGTCGGCAGCGTCAGATGTGTATAAGAGACAGTTTTTTTTTTTTTTTTTTTTTTTTT…TC
Settings: aptamer strand: ATP DNA aptamer (quencher-CACCTGGGGGAGTATTGCGGAGGAAGG + anchor), 100 nM annealed; ATP concentration: 500 uM
In short: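 Five buffer/ATP imaging cycles were run on Cy3-labelled switching-strand clusters on a modified Illumina MiSeq flow-cell, with NaOH stripping and re-annealing between cycles. In each cycle, clusters annealed to 100 nM quencher-labelled ATP aptamer were imaged in selection buffer, then after 15 min with 500 uM ATP at 22 °C. Per cluster, the fluorescence ratio is summed target-cycle over summed buffer-cycle Cy3 intensity, averaged per switch-domain sequence. Only clusters within 100-1000 RFU were kept.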
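Also: ATP exposure 15 min at 22 °C before imaging.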

Sequence | switch fluorescence ratio
ATCCTATTGT | 1.03 ± 0.036
GTCAGAACTA | 0.9786 ± 0.0095
TTGGGGCAAA | 1.06 ± 0.061
CATTTGGATG | 1.02 ± 0.013
TTTTTTGCG | 1.01 ± 0.063
CCTGAGGGGA | 1.16 ± 0.2
AATCGTCATC | 0.991 ± 0.016
GACTTAGTGG | 1.03 ± 0.077
CAAAGTAGGG | 0.991 ± 0.032
AAAATTAGGC | 0.919 ± 0.063
GGGTTTGATG | 0.984 ± 0.035
TTCACATTGG | 1.01 ± 0.03
GTGTTATGGG | 0.978 ± 0.037
TGTATAATTG | 0.993 ± 0.017
CAGTGGGAGA | 1.025 ± 0.0088
ATTCTTATTT | 0.998 ± 0.028
CGGTAATCGG | 0.988 ± 0.01
GGTAGAGGGC | 0.973 ± 0.061
TCATTTCGCC | 1.071 ± 0.0047
GTGGTGATAG | 0.9652 ± 0.0041
AGATTTTAGG | 0.988 ± 0.012
TGTTGTGACA | 0.967 ± 0.026
TCGATGGCTT | 1.05 ± 0.019

Sequence | switch fluorescence ratio
GATCTCAGTT | 1.02 ± 0.036
CTTTGCATTA | 1.7035 ± 0.00023
AGGTTTTTAT | 1.06 ± 0.16
CGCTTCATTA | 1.01 ± 0.063
GGCCGGGGGA | 1.03 ± 0.069
GAGGGTATAG | 1.02 ± 0.085
AAGGTTAATA | 0.976 ± 0.08
ACATTTTGGT | 0.995 ± 0.03
TCATGGGTGG | 0.99 ± 0.02
GGGTAGCTAG | 1.04 ± 0.022
CCTTTAGATG | 1.03 ± 0.04
TTGTCCGGGG | 1.006 ± 0.0058
TTGGTTCTGA | 1.021 ± 0.0036
GCTAATTTGC | 0.98953 ± 0.00037
TAGAGATCTA | 1.011 ± 0.0016
CGTCAAACAT | 1.081 ± 0.0084
GGTGTGGCTC | 1 ± 0.044
TTTTCTAAAT | 1.04 ± 0.076
CAATGAGAGA | 0.9792 ± 0.0083
GAATGTAGTC | 1.01 ± 0.013
CGGTCTGTTC | 0.994 ± 0.052
AGGGCGTTAG | 1.01 ± 0.044
ATAAAATTGG | 0.988 ± 0.034

Sequence | switch fluorescence ratio
TAGTTGAGTG | 0.987 ± 0.037
CTATTTGAGG | 0.9825 ± 0.004
GTTAACCGGA | 1.01 ± 0.012
TGAGAGGTTT | 0.9817 ± 0.0014
AGTTAGTTGT | 1 ± 0.028
ACAAAGGTCG | 1.01 ± 0.022
ACTGGTTTTT | 0.987 ± 0.036
CTTTATTGGA | 0.971 ± 0.013
ATAGGATCTT | 0.996 ± 0.028
GTGATCAAGC | 0.984 ± 0.028
GGTAGGAGCT | 1.02 ± 0.058
TCAAGTTTTG | 0.972 ± 0.015
GCTGTAGCGC | 1.06 ± 0.035
CGATTTTTTG | 1 ± 0.019
AGGGGGTAGT | 0.983 ± 0.011
TGTTGAAAGG | 0.995 ± 0.046
TTTCAGGGGA | 1.19 ± 0.32
GAGTGCGGCT | 1.07 ± 0.16
TTTCGAGTGC | 0.97892 ± 0.00082
TATAATGGGC | 0.965 ± 0.031
AAAGGGAGGA | 1.02 ± 0.036
CACGGTATTT | 1.19 ± 0.067
CCAGTGATGG | 1 ± 0.042

Sequence | switch fluorescence ratio
TTGACGTATT | 0.9874 ± 0.006
GTGGCAAAAG | 1.02 ± 0.033
AAAGGAGGTC | 1.05 ± 0.033
TCAAGATTTT | 0.975 ± 0.025
TGGGACGTGG | 0.9812 ± 0.0086
GATTTATACT | 1.06 ± 0.014
CGCTTAACCG | 1.04 ± 0.043
CGGGTTATGG | 0.981 ± 0.049
ATGGTATTTT | 1.01 ± 0.013
TTATAAAGGA | 1.05 ± 0.046
TAAAGCGCGG | 1.074 ± 0.0037
ACGGAAAGTT | 0.9876 ± 0.0071
TATTTCAGTC | 1.01 ± 0.02
TGGGTTAAGA | 1.01 ± 0.034
GGCGTTGGCT | 0.985 ± 0.011
CAGGGGATGT | 0.985 ± 0.013
TTTGGTGGAA | 1.01 ± 0.044
ATGTGGTTAG | 0.994 ± 0.03
ACGGGGGGTT | 1.05 ± 0.085
TTGTTAGAA | 1.0004 ± 0.001
CGGTGCCGGT | 0.9841 ± 0.0091
TAGTAAGGGC | 1.02 ± 0.033
CAAGAATTTG | 0.9816 ± 0.0097

Sequence | switch fluorescence ratio
GAAAAAGGTG | 1.1 ± 0.028
CCTGGGGCGT | 1.06 ± 0.12
GTGATCAGTG | 0.98698 ± 0.00016
GGAGGATACG | 1.02 ± 0.025
CGTACGGTAA | 1.09 ± 0.042
GTGTAAACGT | 1.04 ± 0.05
AGGACTTTCT | 1.036 ± 0.0013
TTAGTTGAGT | 1.02 ± 0.028
GGATTAAAGC | 0.998 ± 0.022
CAGAAGTTTG | 1 ± 0.034
ATGATCGGGT | 1.02 ± 0.031
CTCTGTTGTG | 0.961 ± 0.012
CTGGTTCAGA | 0.994 ± 0.013
TTTTTGGCTA | 1 ± 0.021
AATCGTGGAA | 1.01 ± 0.019
TCAAGGGTTA | 1.02 ± 0.011
GGTAGATGTC | 1.01 ± 0.054
TTGTTGTATG | 1.02 ± 0.014
ATGTAGGGTT | 1.036 ± 0.0048
AGGAGAAGAC | 1.03 ± 0.049
CGATGGGGTA | 1.01 ± 0.044
TAGTGGGGTG | 0.969 ± 0.01
GTATGTGGGT | 1.023 ± 0.0072

Sequence | switch fluorescence ratio
TTCATAACAA | 1.02 ± 0.022
AATTGCTCGT | 1 ± 0.016
CAGAGTCTGT | 0.999 ± 0.022
CGGGCGAGGG | 0.959 ± 0.011
CCAGAGGGGT | 1.04 ± 0.02
ATTTGAAGTT | 0.975 ± 0.043
GTGGGTGCGG | 0.979 ± 0.051
TCCTAGGGGG | 1 ± 0.026
TGATGGTGCC | 0.986 ± 0.014
TGGGTCTTGG | 0.9835 ± 0.0057
GCTTCGGAGG | 1.015 ± 0.0024
TTCGGAGGGA | 2.2 ± 1.5
GACAGCAGGT | 1.07 ± 0.011
GTGTGAGTTA | 0.992 ± 0.034
CTAAGTTGGG | 1.1 ± 0.13
ACGCCGGATT | 1.01 ± 0.027
GCCGGCTTCT | 1.02 ± 0.016
TGCAAGTTCG | 0.9694 ± 0.0095
ACCTTCCGGG | 2.37 ± 0.084
TAACGTTTTC | 0.983 ± 0.06
ATTGGAGTTA | 0.999 ± 0.012
TTTGTTGAGT | 1 ± 0.026
GACTGAGAGA | 1.024 ± 0.0035

Sequence | switch fluorescence ratio
TTGGGGGGGT | 1 ± 0.03
GTTTCACGGT | 1.003 ± 0.0079
TTTAGGTCTA | 0.978 ± 0.019
CATTGAAATT | 0.968 ± 0.032
GCGTTTACTT | 1.004 ± 0.0016
CGTTTGGGCC | 1.01 ± 0.069
TGTTGATA | 0.968 ± 0.016
AGTAAAAGTT | 0.989 ± 0.052
TTACTCGTCA | 0.989 ± 0.011
ATGGGTGGCT | 1.011 ± 0.007
CCTTCCGGGG | 2.07 ± 0.23
CCTTTATTTA | 0.986 ± 0.026
GTTGGATTTC | 1.01 ± 0.047
TCTATAAGGA | 1.01 ± 0.048
ACCCGTTGTG | 1.05 ± 0.03
ACTTTGGGGG | 1.01 ± 0.042
TTCAAGCTGG | 1.039 ± 0.0098
AAGGATTGCG | 0.96 ± 0.047
TTGATGGGTA | 1.01 ± 0.032
